Where no end group is shown, it is not given here.
B1: Phage-2492 (peptide)
peptide: IEKMCIPAWMCTDK
notes: Clonal phage of the peptide-180 library; not shown: pIII filament protein of the bacteriophage to which the peptide is fused
B2: Phage-2490 (peptide)
peptide: DFKWCTPPWMCDVF
notes: as for B1
B3: Phage-2495 (peptide)
peptide: LEKWCIPLWMCQTA
notes: as for B1
B4: Phage-2501 (peptide)
peptide: SDKWCIPVWMCEES
modifications: cysteine pairing not given here; also: displayed on phage as fusion to pIII, pIII and linker sequence not given here
notes: not shown: fused to pIII of the bacteriophage
B5: Phage-2498 (peptide)
peptide: GEHWCIPAWMCEKM
modifications: cysteine pairing not given here; also: displayed on phage as fusion to pIII, pIII and linker sequence not given here
notes: as for B4
B6: Phage-2483 (peptide)
peptide: DSRWCIPDWMCELE
notes: as for B1
B7: Phage-2507 (peptide)
peptide: VERLCKPLWMCQER
modifications: cysteine pairing not given here; also: fused to phage pIII, linker and fusion site not given here
notes: as for B4
B8: Phage-2503 (peptide)
peptide: SETWCIPAWMCLDG
modifications: cysteine pairing not given here; also: displayed on phage as fusion to pIII, pIII and linker sequence not given here
notes: as for B4
B9: Phage-2509 (peptide)
peptide: TYKMCIPAWKCAVS
modifications: cysteine pairing not given here; also: fused to phage pIII, linker and fusion site not given here
notes: as for B4
B10: Phage-2511 (peptide)
peptide: LVKLCSPEWMCVGM
modifications: cysteine pairing not given here; also: fused to phage pIII, linker and fusion site not given here
notes: as for B4
B11: Phage-2484 (peptide)
peptide: LVRWCVPEWMCAGM
modifications: cysteine pairing not given here; also: displayed on phage as fusion to pIII, pIII and linker sequence not given here
notes: as for B1
B12: Phage-2497 (peptide)
peptide: WPKLCTPPWMCTVD
modifications: cysteine pairing not given here; also: displayed on phage as fusion to pIII, pIII and linker sequence not given here
notes: as for B4
B13: Phage-2482 (peptide)
peptide: VVNWCTPAWMCSGF
modifications: cysteine pairing not given here; also: displayed on phage as fusion to pIII, pIII and linker sequence not given here
notes: as for B1
B14: Phage-2499 (peptide)
peptide: GEKWCIPEWMCQDV
modifications: cysteine pairing not given here; also: displayed on phage as fusion to pIII, pIII and linker sequence not given here
notes: as for B4
B15: Phage-2487 (peptide)
peptide: DYKWCTPIWMCAGD
modifications: cysteine pairing not given here; also: displayed on phage as fusion to pIII, pIII and linker sequence not given here
notes: as for B1
B16: Phage-2493 (peptide)
peptide: MGNWCTPPWMCTGF
notes: as for B1
B17: Phage-2506 (peptide)
peptide: VQMLCIPAWMCGME
modifications: cysteine pairing not given here; also: displayed on phage as fusion to pIII, pIII and linker sequence not given here
notes: as for B4
B18: Phage-2508 (peptide)
peptide: HPSWCTPAWMCQGF
modifications: cysteine pairing not given here; also: fused to phage pIII, linker and fusion site not given here
notes: as for B4
B19: Phage-2496 (peptide)
peptide: ESRLCIPAWMCESQ
notes: as for B1
B20: Phage-2488 (peptide)
peptide: VSIWCIPPWMCVEK
notes: as for B1
B21: Phage-2502 (peptide)
peptide: EPKMCTPSWMCRGF
modifications: cysteine pairing not given here; also: displayed on phage as fusion to pIII, pIII and linker sequence not given here
notes: as for B4
B22: Phage-2494 (peptide)
peptide: HFKMCVPPWMCLFD
notes: as for B1
B23: Phage-2510 (peptide)
peptide: EVKWCIPDWMCSVI
modifications: cysteine pairing not given here; also: fused to phage pIII, linker and fusion site not given here
notes: as for B4
B24: Phage-2491 (peptide)
peptide: SVKWCTPSWMCEHM
notes: as for B1
B25: Phage-2505 (peptide)
peptide: LGKWCIPDWMCSGL
modifications: cysteine pairing not given here; also: displayed on phage as fusion to pIII, pIII and linker sequence not given here
notes: as for B4
B26: Phage-2485 (peptide)
peptide: VSPLCKPDWMCNGF
notes: as for B1
B27: Phage-2489 (peptide)
peptide: WAKWCTPEWMCVVH
notes: as for B1
B28: Phage-2504 (peptide)
peptide: IPKWCTPSWMCEWV
modifications: cysteine pairing not given here; also: displayed on phage as fusion to pIII, pIII and linker sequence not given here
notes: as for B4
B29: Phage-2486 (peptide)
peptide: FPHLCIPYWMCVRT
notes: as for B1
B30: Phage-2500 (peptide)
peptide: GTNWCKPDWMCVGL
modifications: cysteine pairing not given here; also: displayed on phage as fusion to pIII, pIII and linker sequence not given here
notes: as for B4

What was measured:
006 PSMA Fab [1] = molecular target: T1, 006 PSMA Fab; assay: phage ELISA: biotinylated PSMA Fab on neutravidin plate pre-incubated with PSMA antigen (competitor), clonal phage supernatant, anti-M13-HRP detection
T1 construct: also called Anti-PSMA Fab; anti-PSMA Fab
Description: (§1) Clonal phage were harvested as crude supernatants and screened via standard ELISAs. […] Prior to the addition of clonal phage. wells were incubated with blocking buffer and PSMA antigen or blocking buffer alone. Without washing or aspirating, clonal phage supernatants were then added to the wells and incubated for a short time. Wells were then washed followed by detection of bound phage using a horse radish conjugated anti-M13 antibody.

006 PSMA Fab [2] = molecular target: T1, 006 PSMA Fab; assay: phage ELISA: biotinylated PSMA Fab on neutravidin plate, clonal phage supernatant, anti-M13-HRP detection; blocking buffer alone
Description: as §1

006 PSMA Fab [3] = molecular target: T2, 006 PSMA Fab (biotinylated (site not given)); assay: clonal phage ELISA, biotinylated PSMA Fab on neutravidin plate, anti-M13 HRP detection;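 further: crude clonal phage supernatants added to wells pretreated with blocking buffer either with or without PSMA antigen, bound phage read after washing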
T2 construct: Biotinylated PSMA Fab captured on neutravidin coated plates for the clonal phage ELISA; also called Anti-PSMA Fab

006 PSMA Fab [4] = molecular target: T2, 006 PSMA Fab; assay: clonal phage ELISA on plate-bound PSMA Fab, competitor: PSMA antigen pre-incubated in the wells
Description: as §1

PSMA Fab (006 PSMA Fab) [5] = molecular target: T3, PSMA Fab (006 PSMA Fab); assay: clonal phage ELISA; biotinylated PSMA Fab on neutravidin plate, blocking buffer alone; anti-M13 HRP detection;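 further: crude clonal phage supernatants added without washing to wells pretreated with blocking buffer with or without PSMA antigen, short incubation, then washed before detecting bound phage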
T3 construct: also called Anti-PSMA Fab; anti-PSMA Fab
Description: as §1

PSMA Fab (006 PSMA Fab) [6] = molecular target: T3, PSMA Fab (006 PSMA Fab); assay: clonal phage ELISA; biotinylated PSMA Fab on neutravidin plate, wells pre-incubated with PSMA antigen as competitor; anti-M13 HRP detection;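 further: crude clonal phage supernatants added to antigen-treated wells without a wash, incubated briefly, then bound phage read out via horse radish–conjugated anti-M13 antibody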
Description: as §1

Row | Binder | phage binding ELISA signal in presence of PSMA antigen (006 PSMA Fab [1]) | phage binding ELISA signal (006 PSMA Fab [2]) | Phage binding ELISA signal, Anti-PSMA Fab (006 PSMA Fab [3]) | Phage binding ELISA signal, Anti-PSMA Fab in presence of PSMA (006 PSMA Fab [4]) | also measured
1 | B1 | 0.0698 | 1.22 | – | – | –
2 | B2 | 0.0763 | 1.22 | – | – | –
3 | B3 | 0.0777 | 1.22 | – | – | –
4 | B4 | – | – | 1.21 | 0.0874 | –
5 | B5 | – | – | 1.21 | 0.0615 | –
6 | B6 | 0.0935 | 1.23 | – | – | –
7 | B7 | – | – | 1.2 | 0.0748 | –
8 | B8 | – | – | 1.2 | 0.0745 | –
9 | B9 | – | – | 1.19 | 0.0792 | –
10 | B10 | – | – | 1.19 | 0.0667 | –
11 | B11 | 0.0945 | 1.22 | – | – | –
12 | B12 | – | – | 1.21 | 0.0722 | –
13 | B13 | 0.0652 | 1.23 | – | – | –
14 | B14 | – | – | 1.21 | 0.0722 | –
15 | B15 | 0.0707 | 1.22 | – | – | –
16 | B16 | 0.0704 | 1.22 | – | – | –

Row | Binder | phage binding ELISA signal in presence of PSMA antigen (006 PSMA Fab [1]) | phage binding ELISA signal (006 PSMA Fab [2]) | Phage binding ELISA signal, Anti-PSMA Fab (006 PSMA Fab [3]) | Phage binding ELISA signal, Anti-PSMA Fab in presence of PSMA (006 PSMA Fab [4]) | also measured
17 | B17 | – | – | 1.2 | 0.107 | –
18 | B18 | – | – | 1.2 | 0.0911 | –
19 | B19 | 0.0772 | 1.22 | – | – | –
20 | B20 | 0.101 | 1.22 | – | – | –
21 | B21 | – | – | 1.2 | 0.0691 | –
22 | B22 | 0.101 | 1.22 | – | – | –
23 | LGKMCIPLWMCDGL (Row prints L G K M - I - L - - - D - L) [Phage-2512] | – | – | – | – | Phage binding ELISA signal, Anti-PSMA Fab (PSMA Fab (006 PSMA Fab) [5]): 1.19; Phage binding ELISA signal, Anti-PSMA Fab in presence of PSMA antigen (PSMA Fab (006 PSMA Fab) [6]): 0.0573
24 | B23 | – | – | 1.19 | 0.0782 | –
25 | B24 | 0.0739 | 1.22 | – | – | –
26 | B25 | – | – | 1.2 | 0.144 | –
27 | B26 | 0.0787 | 1.22 | – | – | –
28 | B27 | 0.15 | 1.22 | – | – | –
29 | B28 | – | – | 1.2 | 0.0916 | –
30 | B29 | 0.198 | 1.22 | – | – | –
31 | B30 | – | – | 1.21 | 0.0855 | –
32 | SLELCRPEWMCVGF (Row prints S L E - - R - E - - - V - -) [Phage-2513] | – | – | – | – | Phage binding ELISA signal, Anti-PSMA Fab (PSMA Fab (006 PSMA Fab) [5]): 1.19; Phage binding ELISA signal, Anti-PSMA Fab in presence of PSMA antigen (PSMA Fab (006 PSMA Fab) [6]): 0.0955
